Values of other authors, collected in PMC6753016.
Like-named read-outs stand apart in the source and are kept apart here.

What was measured:
[1] = target: β-Trypsin (Bos taurus) (UniProt P00760)
[2] = target: Kallikrein 14 (Homo sapiens) (UniProt Q9P0G3)
[3] = target: Trypsin (Bos taurus) (UniProt P00760)
[4] = target: Kallikrein 5 (Homo sapiens) (UniProt Q9Y337)
[5] = target: Matriptase (Homo sapiens) (UniProt Q9Y5Y6)
[6] = target: Kallikrein 7 (Homo sapiens) (UniProt P49862)
[7] = target: Cathepsin G (Homo sapiens) (UniProt P08311)
[8] = target: Cathepsin B (UniProt P07858)
[9] = target: Cathepsin L (UniProt P07711)
Target sequence in this assay (P07711 114-288, chain 1 of 2): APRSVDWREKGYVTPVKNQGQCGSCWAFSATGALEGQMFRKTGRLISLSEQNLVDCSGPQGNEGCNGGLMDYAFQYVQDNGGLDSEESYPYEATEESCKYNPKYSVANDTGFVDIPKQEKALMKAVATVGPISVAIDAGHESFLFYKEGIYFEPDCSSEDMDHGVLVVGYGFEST
Target sequence in this assay (P07711 292-333, chain 2 of 2): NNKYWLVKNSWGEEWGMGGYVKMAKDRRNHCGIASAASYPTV

[10] = target: Cathepsin H (UniProt P09668)
Target sequence in this assay (P09668 116-335): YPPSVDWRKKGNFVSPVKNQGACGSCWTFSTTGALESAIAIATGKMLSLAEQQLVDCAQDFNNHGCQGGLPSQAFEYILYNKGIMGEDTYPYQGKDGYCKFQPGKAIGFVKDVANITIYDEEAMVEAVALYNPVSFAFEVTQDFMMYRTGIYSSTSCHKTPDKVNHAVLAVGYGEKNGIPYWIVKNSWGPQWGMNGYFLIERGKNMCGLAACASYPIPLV

[11] = target: Cathepsin H (UniProt P09668); remark: listed apart in the source
Target sequence in this assay (P09668 whole entry, looked up): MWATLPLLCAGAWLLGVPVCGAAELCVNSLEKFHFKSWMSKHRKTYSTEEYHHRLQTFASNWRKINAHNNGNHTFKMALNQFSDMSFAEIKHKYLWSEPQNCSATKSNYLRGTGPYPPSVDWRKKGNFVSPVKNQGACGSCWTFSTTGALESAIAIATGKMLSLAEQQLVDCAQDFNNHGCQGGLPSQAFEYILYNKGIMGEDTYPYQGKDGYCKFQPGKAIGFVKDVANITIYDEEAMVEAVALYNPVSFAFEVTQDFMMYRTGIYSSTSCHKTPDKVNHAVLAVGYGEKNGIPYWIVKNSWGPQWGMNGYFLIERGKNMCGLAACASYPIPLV

[12] = target: Cathepsin L (UniProt P07711); remark: listed apart in the source
Target sequence in this assay (P07711 292-333): as the sequence (P07711 292-333, chain 2 of 2) above

[13] = target: Cathepsin B (UniProt P07858); remark: listed apart in the source
[14] = target: Factor XIIa (Homo sapiens) (UniProt P00748)
[15] = target: Trypsin (Bos taurus) (UniProt P00760); remark: listed apart in the source
[16] = target: Porcine elastase (Sus scrofa) (UniProt P00772)
[17] = target: Cathepsin L (UniProt P07711); remark: listed apart in the source
Target sequence in this assay (P07711 114-288, chain 1 of 2): as the sequence (P07711 114-288, chain 1 of 2) above
Target sequence in this assay (P07711 292-333, chain 2 of 2): as the sequence (P07711 292-333, chain 2 of 2) above

[18] = target: Cathepsin H (UniProt P09668); remark: listed apart in the source
Target sequence in this assay (P09668 116-335): as the sequence (P09668 116-335) above

[19] = target: Cathepsin H (UniProt P09668); remark: listed apart in the source
Target sequence in this assay (P09668 whole entry, looked up): as the sequence (P09668 whole entry, looked up) above

[20] = target: Cathepsin L (UniProt P07711); remark: listed apart in the source
Target sequence in this assay (P07711 292-333): as the sequence (P07711 292-333, chain 2 of 2) above

Corn cystatin-I, sequence (P31726 25-135): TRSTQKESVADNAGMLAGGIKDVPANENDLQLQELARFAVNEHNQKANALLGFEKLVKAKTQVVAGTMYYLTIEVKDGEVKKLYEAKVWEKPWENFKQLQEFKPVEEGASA
Corn Hageman factor inhibitor, sequence (P01088 29-138): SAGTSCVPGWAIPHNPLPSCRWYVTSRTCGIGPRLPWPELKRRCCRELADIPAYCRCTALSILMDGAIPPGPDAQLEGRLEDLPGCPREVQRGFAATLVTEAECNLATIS
Trypsin (Bos taurus), sequence (P00760 149-246): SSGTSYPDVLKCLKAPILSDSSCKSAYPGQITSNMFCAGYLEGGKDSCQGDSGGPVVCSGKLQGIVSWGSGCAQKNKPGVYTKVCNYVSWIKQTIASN
Kallikrein 14 (Homo sapiens), sequence (Q9P0G3 41-267): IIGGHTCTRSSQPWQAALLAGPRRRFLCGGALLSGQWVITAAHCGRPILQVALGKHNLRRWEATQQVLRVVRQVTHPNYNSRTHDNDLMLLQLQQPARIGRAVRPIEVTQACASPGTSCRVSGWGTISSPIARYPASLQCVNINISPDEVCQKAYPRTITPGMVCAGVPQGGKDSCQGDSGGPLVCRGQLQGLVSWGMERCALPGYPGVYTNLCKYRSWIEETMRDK
Kallikrein 7 (Homo sapiens), sequence (P49862 30-253): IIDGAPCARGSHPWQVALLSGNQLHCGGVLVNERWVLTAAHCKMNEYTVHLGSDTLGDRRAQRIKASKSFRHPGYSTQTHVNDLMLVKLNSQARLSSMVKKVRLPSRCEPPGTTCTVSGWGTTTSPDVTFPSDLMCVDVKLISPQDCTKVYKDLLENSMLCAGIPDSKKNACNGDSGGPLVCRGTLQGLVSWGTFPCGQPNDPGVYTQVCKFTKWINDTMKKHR
MCEI-III, sequence (P10296 2-31): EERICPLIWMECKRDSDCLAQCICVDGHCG
β-Trypsin (Bos taurus), sequence (P00760 149-246): as the sequence (P00760 149-246) above
Porcine elastase (Sus scrofa), sequence (P00772 27-266): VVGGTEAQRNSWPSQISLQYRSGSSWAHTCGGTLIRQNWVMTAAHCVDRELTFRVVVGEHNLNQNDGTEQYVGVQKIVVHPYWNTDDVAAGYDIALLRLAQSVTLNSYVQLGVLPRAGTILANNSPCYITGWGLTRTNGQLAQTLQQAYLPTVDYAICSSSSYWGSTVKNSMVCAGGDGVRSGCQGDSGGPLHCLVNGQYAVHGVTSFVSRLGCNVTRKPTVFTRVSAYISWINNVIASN
Matriptase (Homo sapiens), sequence (Q9Y5Y6 whole entry): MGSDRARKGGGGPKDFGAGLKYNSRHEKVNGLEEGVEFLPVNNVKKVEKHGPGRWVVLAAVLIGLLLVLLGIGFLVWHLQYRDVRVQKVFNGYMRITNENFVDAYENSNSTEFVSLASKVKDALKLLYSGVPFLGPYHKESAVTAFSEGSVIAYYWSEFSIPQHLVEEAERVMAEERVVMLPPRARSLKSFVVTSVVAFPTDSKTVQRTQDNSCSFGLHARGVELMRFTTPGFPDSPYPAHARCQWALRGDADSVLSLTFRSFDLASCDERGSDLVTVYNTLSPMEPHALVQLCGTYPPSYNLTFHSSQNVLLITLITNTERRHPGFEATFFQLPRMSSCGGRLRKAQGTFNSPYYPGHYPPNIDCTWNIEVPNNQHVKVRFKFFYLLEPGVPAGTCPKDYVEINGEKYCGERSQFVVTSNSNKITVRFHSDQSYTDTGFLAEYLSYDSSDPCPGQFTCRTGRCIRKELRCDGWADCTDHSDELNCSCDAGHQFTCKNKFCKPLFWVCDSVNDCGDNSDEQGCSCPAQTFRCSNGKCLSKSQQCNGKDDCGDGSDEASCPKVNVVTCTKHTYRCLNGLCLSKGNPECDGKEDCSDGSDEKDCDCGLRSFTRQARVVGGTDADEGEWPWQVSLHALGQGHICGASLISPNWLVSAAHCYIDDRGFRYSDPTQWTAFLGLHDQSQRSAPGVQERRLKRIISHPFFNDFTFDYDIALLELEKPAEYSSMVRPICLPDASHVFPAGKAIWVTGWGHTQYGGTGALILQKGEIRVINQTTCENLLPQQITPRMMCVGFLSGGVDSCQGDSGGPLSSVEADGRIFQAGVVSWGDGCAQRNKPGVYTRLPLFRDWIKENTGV
Kallikrein 5 (Homo sapiens), sequence (Q9Y337 23-293): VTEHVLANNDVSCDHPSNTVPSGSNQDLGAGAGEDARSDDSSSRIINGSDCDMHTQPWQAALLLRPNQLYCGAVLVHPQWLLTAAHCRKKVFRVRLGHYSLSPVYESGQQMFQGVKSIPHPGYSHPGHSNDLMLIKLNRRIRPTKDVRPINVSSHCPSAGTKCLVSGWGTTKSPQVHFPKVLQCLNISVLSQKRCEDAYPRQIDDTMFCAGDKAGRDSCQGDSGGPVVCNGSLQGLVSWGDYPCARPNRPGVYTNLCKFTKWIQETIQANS
Factor XIIa (Homo sapiens), sequence (P00748 whole entry, looked up): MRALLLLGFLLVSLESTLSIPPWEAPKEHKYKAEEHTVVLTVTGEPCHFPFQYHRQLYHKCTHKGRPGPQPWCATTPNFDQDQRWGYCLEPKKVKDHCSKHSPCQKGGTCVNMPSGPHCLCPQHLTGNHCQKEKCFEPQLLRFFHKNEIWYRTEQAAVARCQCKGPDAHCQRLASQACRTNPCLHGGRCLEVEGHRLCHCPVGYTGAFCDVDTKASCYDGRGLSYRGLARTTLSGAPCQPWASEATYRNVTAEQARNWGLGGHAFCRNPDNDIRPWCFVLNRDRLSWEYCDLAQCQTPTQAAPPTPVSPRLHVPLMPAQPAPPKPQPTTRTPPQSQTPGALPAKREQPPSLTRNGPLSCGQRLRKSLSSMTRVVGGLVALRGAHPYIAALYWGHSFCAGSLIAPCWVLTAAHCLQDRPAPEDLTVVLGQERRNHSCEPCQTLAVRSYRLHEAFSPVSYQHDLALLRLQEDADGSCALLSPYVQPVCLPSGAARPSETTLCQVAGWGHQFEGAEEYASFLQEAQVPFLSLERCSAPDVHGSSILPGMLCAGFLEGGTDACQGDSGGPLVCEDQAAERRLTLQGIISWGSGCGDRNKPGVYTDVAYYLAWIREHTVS
Cathepsin G (Homo sapiens), sequence (P08311 21-243): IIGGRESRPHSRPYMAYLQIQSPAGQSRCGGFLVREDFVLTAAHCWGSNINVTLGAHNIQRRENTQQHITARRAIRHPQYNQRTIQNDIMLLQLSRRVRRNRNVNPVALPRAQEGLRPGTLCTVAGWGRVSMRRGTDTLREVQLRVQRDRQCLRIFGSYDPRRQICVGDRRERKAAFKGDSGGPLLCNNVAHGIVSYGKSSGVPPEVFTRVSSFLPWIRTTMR
MTI-2, sequence (P26780 31-93): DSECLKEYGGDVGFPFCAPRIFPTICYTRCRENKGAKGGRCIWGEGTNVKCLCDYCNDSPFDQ

MTI-2 (from UniProt P26780)
Ki [1]: 0.01 nM

SFTI-I (from UniProt Q4GWU5)
Ki [2]: 25 nM | Ki [3]: 0.17 nM | Ki [4]: 140 nM | Ki [5]: 200 nM | Ki [6]: 740 nM | Ki [7]: 730 nM

Oryzacystatin-I (from UniProt P09229)
Ki [8]: 79 nM | Ki [9]: 0.73 nM | Ki [10]: 1000 nM | Ki [11]: 1000 nM | Ki [12]: 0.73 nM | Ki [13]: 79 nM

Corn Hageman factor inhibitor (from UniProt P01088)
Ki [14]: 2 nM | Ki [15]: 23 nM

MCEI-III (from UniProt P10296)
Ki [16]: 4 nM

Corn cystatin-I (from UniProt P31726)
Ki [17]: 17 nM | Ki [18]: 5.7 nM | Ki [19]: 5.7 nM | Ki [20]: 17 nM
